US20150344570A1 (published 2015)

Molecular target: T1, FcγRIIb extracellular domain with C-terminal His tag (human, UniProt P31994 43-217)
T1 construct: extracellular domain; also called FcgRIIb; 2b; not shown: His tag at the C terminus
T1 sequence (looked up): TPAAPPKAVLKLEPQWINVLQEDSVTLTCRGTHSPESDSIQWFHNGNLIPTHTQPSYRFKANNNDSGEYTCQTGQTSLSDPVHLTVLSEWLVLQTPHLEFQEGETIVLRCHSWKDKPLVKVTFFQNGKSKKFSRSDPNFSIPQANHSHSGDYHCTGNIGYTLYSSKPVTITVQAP
Assay: SPR, relative binding, HeCon Ab = 100
Description: Analysis of interaction between objective antibody and the FcγR was carried out using Biacore T100 (GE Healthcare). HBS-EP+ (GE Healthcare) was used as the running buffer, and the measurement temperature was set to 25° C. Chips produced by immobilizing the antigen peptide by the amine coupling method to a Series S Sencor Chip CM5 (GE Healthcare), or alternatively, chips produced by allowing preliminarily biotinylated antigen peptides to interact with and immobilize onto a Series S Sensor Chip SA (certified) (GE Healthcare) were used. Antibodies of interest were captured onto an antigen peptide-immobilized chip, and allowed to interact to each FcγR diluted with running buffer. To regenerate and repeatedly use the chip, the antibodies captured on the chip were washed off by reacting 10 mM glycine-HCl, pH 1.5.

Binder | He/Con_2b
GpH7-A5/GpH7-B3 variant I332_15Y/GpL16-k0 (antibody, human IgG1, kappa, also called He Ab I332_15Y) heavy 1: not shown heavy 2: not shown light: DIVMTQSPLSLPVTPGEPASISCQASESLVHSNRNTYLHWYLQKPGQSPQLLIYKVSNRFSGVPDRFSGSGSGTDFTLKISRVEAEDVGVYYCSQNTHVPPTFGQGTKVEIERTVAAPSVFIFPPSDEQLKSGTASVVCLLNNFYPREAKVQWKVDNALQSGNSQESVTEQDSKDSTYSLSSTLTLSKADYEKHKVYACEVTHQGLSSPVTKSFNRGEC | 101 % of control
GpH7-A5/GpH7-B3 variant I336_08L/GpL16-k0 (antibody, human IgG1, kappa, also called He Ab I336_08L) heavy 1: not shown heavy 2: not shown light: DIVMTQSPLSLPVTPGEPASISCQASESLVHSNRNTYLHWYLQKPGQSPQLLIYKVSNRFSGVPDRFSGSGSGTDFTLKISRVEAEDVGVYYCSQNTHVPPTFGQGTKVEIERTVAAPSVFIFPPSDEQLKSGTASVVCLLNNFYPREAKVQWKVDNALQSGNSQESVTEQDSKDSTYSLSSTLTLSKADYEKHKVYACEVTHQGLSSPVTKSFNRGEC | 107 % of control
GpH7-A5/GpH7-B3 variant K326_03V/GpL16-k0 (antibody, human IgG1, kappa, also called He Ab K326_03V) heavy 1: not shown heavy 2: not shown light: DIVMTQSPLSLPVTPGEPASISCQASESLVHSNRNTYLHWYLQKPGQSPQLLIYKVSNRFSGVPDRFSGSGSGTDFTLKISRVEAEDVGVYYCSQNTHVPPTFGQGTKVEIERTVAAPSVFIFPPSDEQLKSGTASVVCLLNNFYPREAKVQWKVDNALQSGNSQESVTEQDSKDSTYSLSSTLTLSKADYEKHKVYACEVTHQGLSSPVTKSFNRGEC | 175 % of control
GpH7-A5/GpH7-B3 variant K326_04F/GpL16-k0 (antibody, human IgG1, kappa, also called He Ab K326_04F) heavy 1: not shown heavy 2: not shown light: DIVMTQSPLSLPVTPGEPASISCQASESLVHSNRNTYLHWYLQKPGQSPQLLIYKVSNRFSGVPDRFSGSGSGTDFTLKISRVEAEDVGVYYCSQNTHVPPTFGQGTKVEIERTVAAPSVFIFPPSDEQLKSGTASVVCLLNNFYPREAKVQWKVDNALQSGNSQESVTEQDSKDSTYSLSSTLTLSKADYEKHKVYACEVTHQGLSSPVTKSFNRGEC | 155 % of control

More lines, now with the values ahead:

He/Con_2b | Binder
165 % of control | GpH7-A5/GpH7-B3 variant K326_06M/GpL16-k0 (antibody, human IgG1, kappa, also called He Ab K326_06M) heavy 1: not shown heavy 2: not shown light: DIVMTQSPLSLPVTPGEPASISCQASESLVHSNRNTYLHWYLQKPGQSPQLLIYKVSNRFSGVPDRFSGSGSGTDFTLKISRVEAEDVGVYYCSQNTHVPPTFGQGTKVEIERTVAAPSVFIFPPSDEQLKSGTASVVCLLNNFYPREAKVQWKVDNALQSGNSQESVTEQDSKDSTYSLSSTLTLSKADYEKHKVYACEVTHQGLSSPVTKSFNRGEC
193 % of control | GpH7-A5/GpH7-B3 variant K326_09D/GpL16-k0 (antibody, human IgG1, kappa, also called He Ab K326_09D) heavy 1: not shown heavy 2: not shown light: DIVMTQSPLSLPVTPGEPASISCQASESLVHSNRNTYLHWYLQKPGQSPQLLIYKVSNRFSGVPDRFSGSGSGTDFTLKISRVEAEDVGVYYCSQNTHVPPTFGQGTKVEIERTVAAPSVFIFPPSDEQLKSGTASVVCLLNNFYPREAKVQWKVDNALQSGNSQESVTEQDSKDSTYSLSSTLTLSKADYEKHKVYACEVTHQGLSSPVTKSFNRGEC
200 % of control | GpH7-A5/GpH7-B3 variant K326_10E/GpL16-k0 (antibody, human IgG1, kappa, also called He Ab K326_10E) heavy 1: not shown heavy 2: not shown light: DIVMTQSPLSLPVTPGEPASISCQASESLVHSNRNTYLHWYLQKPGQSPQLLIYKVSNRFSGVPDRFSGSGSGTDFTLKISRVEAEDVGVYYCSQNTHVPPTFGQGTKVEIERTVAAPSVFIFPPSDEQLKSGTASVVCLLNNFYPREAKVQWKVDNALQSGNSQESVTEQDSKDSTYSLSSTLTLSKADYEKHKVYACEVTHQGLSSPVTKSFNRGEC
150 % of control | GpH7-A5/GpH7-B3 variant K326_14T/GpL16-k0 (antibody, human IgG1, kappa, also called He Ab K326_14T) heavy 1: not shown heavy 2: not shown light: DIVMTQSPLSLPVTPGEPASISCQASESLVHSNRNTYLHWYLQKPGQSPQLLIYKVSNRFSGVPDRFSGSGSGTDFTLKISRVEAEDVGVYYCSQNTHVPPTFGQGTKVEIERTVAAPSVFIFPPSDEQLKSGTASVVCLLNNFYPREAKVQWKVDNALQSGNSQESVTEQDSKDSTYSLSSTLTLSKADYEKHKVYACEVTHQGLSSPVTKSFNRGEC
177 % of control | GpH7-A5/GpH7-B3 variant K326_08L/GpL16-k0 (antibody, human IgG1, kappa, also called He Ab K326_08L) heavy 1: not shown heavy 2: not shown light: DIVMTQSPLSLPVTPGEPASISCQASESLVHSNRNTYLHWYLQKPGQSPQLLIYKVSNRFSGVPDRFSGSGSGTDFTLKISRVEAEDVGVYYCSQNTHVPPTFGQGTKVEIERTVAAPSVFIFPPSDEQLKSGTASVVCLLNNFYPREAKVQWKVDNALQSGNSQESVTEQDSKDSTYSLSSTLTLSKADYEKHKVYACEVTHQGLSSPVTKSFNRGEC
